# From article PMC3432913
# Biological target: Ptch1-GFP (mouse) (UniProt Q61115)
# Assay: cell surface binding assay
# Chain of UniProt Q61115 (Q61115 whole entry): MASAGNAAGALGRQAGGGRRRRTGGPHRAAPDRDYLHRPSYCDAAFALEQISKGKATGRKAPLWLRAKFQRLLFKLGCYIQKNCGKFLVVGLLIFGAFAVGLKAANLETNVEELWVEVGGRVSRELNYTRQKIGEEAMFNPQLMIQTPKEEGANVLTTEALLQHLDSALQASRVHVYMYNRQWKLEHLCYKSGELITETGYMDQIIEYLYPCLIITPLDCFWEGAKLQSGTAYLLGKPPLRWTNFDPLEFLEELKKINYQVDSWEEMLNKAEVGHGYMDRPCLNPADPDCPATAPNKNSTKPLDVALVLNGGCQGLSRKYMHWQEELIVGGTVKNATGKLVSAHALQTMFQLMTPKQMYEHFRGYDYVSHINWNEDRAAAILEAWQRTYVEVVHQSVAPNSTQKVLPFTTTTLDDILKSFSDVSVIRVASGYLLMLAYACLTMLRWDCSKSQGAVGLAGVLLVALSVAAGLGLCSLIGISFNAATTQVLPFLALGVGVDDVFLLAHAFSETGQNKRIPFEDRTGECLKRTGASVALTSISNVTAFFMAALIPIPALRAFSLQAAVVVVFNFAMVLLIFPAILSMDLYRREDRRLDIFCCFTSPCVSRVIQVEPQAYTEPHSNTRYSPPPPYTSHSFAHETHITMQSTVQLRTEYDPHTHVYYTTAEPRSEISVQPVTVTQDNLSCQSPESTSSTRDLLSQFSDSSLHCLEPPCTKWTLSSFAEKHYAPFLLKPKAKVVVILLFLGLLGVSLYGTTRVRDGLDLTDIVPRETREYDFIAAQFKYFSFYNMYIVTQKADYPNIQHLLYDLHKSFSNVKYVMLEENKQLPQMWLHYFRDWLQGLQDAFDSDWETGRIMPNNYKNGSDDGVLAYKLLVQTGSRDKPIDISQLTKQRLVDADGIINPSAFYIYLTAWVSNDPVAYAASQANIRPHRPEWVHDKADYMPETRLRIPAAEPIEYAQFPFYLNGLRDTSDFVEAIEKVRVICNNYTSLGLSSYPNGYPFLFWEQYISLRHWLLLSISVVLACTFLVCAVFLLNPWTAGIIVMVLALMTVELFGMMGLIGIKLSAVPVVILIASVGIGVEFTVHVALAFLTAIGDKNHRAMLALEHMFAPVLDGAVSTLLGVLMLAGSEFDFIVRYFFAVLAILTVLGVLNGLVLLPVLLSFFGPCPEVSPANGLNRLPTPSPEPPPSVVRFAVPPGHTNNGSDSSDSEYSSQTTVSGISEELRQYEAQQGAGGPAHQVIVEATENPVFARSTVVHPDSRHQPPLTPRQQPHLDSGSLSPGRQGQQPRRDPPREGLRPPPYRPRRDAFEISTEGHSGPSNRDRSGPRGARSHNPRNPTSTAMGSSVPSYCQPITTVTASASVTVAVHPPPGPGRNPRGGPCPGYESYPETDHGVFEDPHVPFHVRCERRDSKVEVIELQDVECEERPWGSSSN
row,binding relative to Boc ecto-Fc [%],Substance
1,60,Boc-Fc construct containing the FNIIIa domain alone (Fc fusion)
2,60,Boc-Fc construct containing the FNIIIb domain alone (Fc fusion)
